Results as given in US20120172295A1 (INDIANA UNIVERSITY RESEARCH AND TECHNOLOGY, published 2012).
Where two headings read alike, the source gives them in different places. Starred links: 1 amine or outer side, 2 acyl side, 3 side chain; linkers in the order of their positions; H or OH if unused. Positions of bridges follow the written chain, without caps; N, C: chain ends. Non-standard residues stand in square brackets, D forms with d. Groups on a side chain read outwards from the residue. No end group written: not given here. *: point of attachment. γGlu = O=C(O)[C@H](CCC(=O)[*:2])N[*:1]; Palmitoyl = CCCCCCCCCCCCCCCC(=O)*; Myristoyl = CCCCCCCCCCCCCC(=O)*; Aib = CC(C)(N)C(=O)O

T1: GIP receptor (UniProt P48546 22-466)
T1 sequence (looked up): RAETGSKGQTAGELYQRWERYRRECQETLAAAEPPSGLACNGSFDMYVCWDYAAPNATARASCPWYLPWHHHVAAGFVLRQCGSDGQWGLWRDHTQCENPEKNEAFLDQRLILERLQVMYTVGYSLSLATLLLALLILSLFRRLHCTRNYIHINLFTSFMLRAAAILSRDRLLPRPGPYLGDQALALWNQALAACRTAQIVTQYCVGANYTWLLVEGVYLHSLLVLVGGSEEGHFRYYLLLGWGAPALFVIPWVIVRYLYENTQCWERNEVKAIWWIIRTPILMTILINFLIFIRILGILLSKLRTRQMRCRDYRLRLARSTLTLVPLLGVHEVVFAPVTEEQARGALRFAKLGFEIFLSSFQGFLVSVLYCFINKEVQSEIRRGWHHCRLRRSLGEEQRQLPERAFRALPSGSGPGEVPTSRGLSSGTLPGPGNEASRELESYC


Key:
Test in all cases: cell-based or functional assay
glucagon receptor [1] = biological target: T2, glucagon receptor (UniProt P47871 26-477, limits assumed)
T2 sequence (P47871 26-477 limits assumed): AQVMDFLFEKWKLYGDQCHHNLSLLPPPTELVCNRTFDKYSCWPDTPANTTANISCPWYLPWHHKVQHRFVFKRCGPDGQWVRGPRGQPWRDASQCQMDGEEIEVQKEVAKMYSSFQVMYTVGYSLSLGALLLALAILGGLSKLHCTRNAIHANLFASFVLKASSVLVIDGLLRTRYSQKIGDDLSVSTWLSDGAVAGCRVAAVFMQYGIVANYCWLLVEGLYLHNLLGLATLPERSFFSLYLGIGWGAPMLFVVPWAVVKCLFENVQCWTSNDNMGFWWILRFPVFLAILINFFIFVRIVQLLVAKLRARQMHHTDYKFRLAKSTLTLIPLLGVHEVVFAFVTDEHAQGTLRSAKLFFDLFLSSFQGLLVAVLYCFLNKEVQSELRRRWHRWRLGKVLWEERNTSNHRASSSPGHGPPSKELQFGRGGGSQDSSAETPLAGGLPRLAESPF

GLP-1 receptor [2] = biological target: T3, GLP-1 receptor (UniProt P43220 24-463, limits assumed)
GIP receptor [3] = biological target: T1, GIP receptor
glucagon receptor [4] = biological target: T2, glucagon receptor; remark: listed apart in the source
GLP-1 receptor [5] = biological target: T3, GLP-1 receptor; remark: listed apart in the source
GIP receptor [6] = biological target: T1, GIP receptor; remark: listed apart in the source
glucagon receptor [7] = biological target: T2, glucagon receptor; remark: listed apart in the source
glucagon receptor [8] = biological target: T2, glucagon receptor; remark: listed apart in the source
GLP-1 receptor [9] = biological target: T3, GLP-1 receptor; remark: listed apart in the source
glucagon receptor [10] = biological target: T2, glucagon receptor; remark: listed apart in the source
GLP-1 receptor [11] = biological target: T3, GLP-1 receptor; remark: listed apart in the source
GIP receptor [12] = biological target: T1, GIP receptor; remark: listed apart in the source
glucagon receptor [13] = biological target: T2, glucagon receptor; remark: listed apart in the source

Binder	% Relative activity (glucagon receptor [1]) [%]	% Relative activity (GLP-1 receptor [2]) [%]	% Relative activity (GIP receptor [3]) [%]	% Relative activity (glucagon receptor [4]) [%]	EC50 (glucagon receptor [4]) [pM]	% Relative activity (GLP-1 receptor [5]) [%]	% Relative activity (GIP receptor [6]) [%]	other results
H[Aib]QGTFTSDYSKYLD[Aib]QAAKEFICWLMNGGPSSGAPPPSK(Myristoyl)-NH2 (N-terminus assumed; SMILES CCCCCCCCCCCCCC(=O)NCCCC[C@H](NC(=O)[C@H](CO)NC(=O)[C@@H]1CCCN1C(=O)[C@@H]1CCCN1C(=O)[C@@H]1CCCN1C(=O)[C@H](C)NC(=O)CNC(=O)[C@H](CO)NC(=O)[C@H](CO)NC(=O)[C@@H]1CCCN1C(=O)CNC(=O)CNC(=O)[C@H](CC(N)=O)NC(=O)[C@H](CCSC)NC(=O)[C@H](CC(C)C)NC(=O)[C@H](Cc1c[nH]c2ccccc12)NC(=O)[C@H](CS)NC(=O)[C@@H](NC(=O)[C@H](Cc1ccccc1)NC(=O)[C@H](CCC(=O)O)NC(=O)[C@H](CCCCN)NC(=O)[C@H](C)NC(=O)[C@H](C)NC(=O)[C@H](CCC(N)=O)NC(=O)C(C)(C)NC(=O)[C@H](CC(=O)O)NC(=O)[C@H](CC(C)C)NC(=O)[C@H](Cc1ccc(O)cc1)NC(=O)[C@H](CCCCN)NC(=O)[C@H](CO)NC(=O)[C@H](Cc1ccc(O)cc1)NC(=O)[C@H](CC(=O)O)NC(=O)[C@H](CO)NC(=O)[C@@H](NC(=O)[C@H](Cc1ccccc1)NC(=O)[C@@H](NC(=O)CNC(=O)[C@H](CCC(N)=O)NC(=O)C(C)(C)NC(=O)[C@@H](N)Cc1c[nH]cn1)[C@@H](C)O)[C@@H](C)O)[C@@H](C)CC)C(N)=O) [mt-347]	111	67	0.7	111	31.7	67.1	0.7	EC50 (GLP-1 receptor [5]): 8.2 pM; EC50 (GIP receptor [6]): 383 pM
Y[Aib]EGTFTSDYSIYLDKQAA[Aib]EFVNWLLAGGPSSGAPPPSK(Palmitoyl) [mt-261]	13.4	–	–	–	–	–	–	% Relative activity (glucagon receptor [7]): 31.6%
H[Aib]QGTFTSDYSKYLD[Aib]QAAKEFICWLMNGGPSSGAPPPSK-NH2 (N-terminus assumed; SMILES CC[C@H](C)[C@H](NC(=O)[C@H](Cc1ccccc1)NC(=O)[C@H](CCC(=O)O)NC(=O)[C@H](CCCCN)NC(=O)[C@H](C)NC(=O)[C@H](C)NC(=O)[C@H](CCC(N)=O)NC(=O)C(C)(C)NC(=O)[C@H](CC(=O)O)NC(=O)[C@H](CC(C)C)NC(=O)[C@H](Cc1ccc(O)cc1)NC(=O)[C@H](CCCCN)NC(=O)[C@H](CO)NC(=O)[C@H](Cc1ccc(O)cc1)NC(=O)[C@H](CC(=O)O)NC(=O)[C@H](CO)NC(=O)[C@@H](NC(=O)[C@H](Cc1ccccc1)NC(=O)[C@@H](NC(=O)CNC(=O)[C@H](CCC(N)=O)NC(=O)C(C)(C)NC(=O)[C@@H](N)Cc1c[nH]cn1)[C@@H](C)O)[C@@H](C)O)C(=O)N[C@@H](CS)C(=O)N[C@@H](Cc1c[nH]c2ccccc12)C(=O)N[C@@H](CC(C)C)C(=O)N[C@@H](CCSC)C(=O)N[C@@H](CC(N)=O)C(=O)NCC(=O)NCC(=O)N1CCC[C@H]1C(=O)N[C@@H](CO)C(=O)N[C@@H](CO)C(=O)NCC(=O)N[C@@H](C)C(=O)N1CCC[C@H]1C(=O)N1CCC[C@H]1C(=O)N1CCC[C@H]1C(=O)N[C@@H](CO)C(=O)N[C@@H](CCCCN)C(N)=O) [mt-348]	8.2	149	0.2	8.16	433	149	0.15	EC50 (GLP-1 receptor [5]): 3.7 pM; EC50 (GIP receptor [6]): 1760 pM
HXQGTFTSDYSKYLDEQAAKEFICWLMNGGPSSGAPPPSK (AIB at 2; Lys 40 acylated with a C14 fatty acyl group) [mt-345]	193	153	5	193	18.3	153	4.99	–
HSQGTFTSDYSKYLDERRAKDFVQWLMNT-NH2 (lactam 16-20; N-terminus assumed; SMILES CSCC[C@H](NC(=O)[C@H](CC(C)C)NC(=O)[C@H](Cc1c[nH]c2ccccc12)NC(=O)[C@H](CCC(N)=O)NC(=O)[C@@H](NC(=O)[C@H](Cc1ccccc1)NC(=O)[C@H](CC(=O)O)NC(=O)[C@@H]1CCCCNC(=O)CC[C@H](NC(=O)[C@H](CC(=O)O)NC(=O)[C@H](CC(C)C)NC(=O)[C@H](Cc2ccc(O)cc2)NC(=O)[C@H](CCCCN)NC(=O)[C@H](CO)NC(=O)[C@H](Cc2ccc(O)cc2)NC(=O)[C@H](CC(=O)O)NC(=O)[C@H](CO)NC(=O)[C@@H](NC(=O)[C@H](Cc2ccccc2)NC(=O)[C@@H](NC(=O)CNC(=O)[C@H](CCC(N)=O)NC(=O)[C@H](CO)NC(=O)[C@@H](N)Cc2c[nH]cn2)[C@@H](C)O)[C@@H](C)O)C(=O)N[C@@H](CCCNC(=N)N)C(=O)N[C@@H](CCCNC(=N)N)C(=O)N[C@@H](C)C(=O)N1)C(C)C)C(=O)N[C@@H](CC(N)=O)C(=O)N[C@H](C(N)=O)[C@@H](C)O) [E16K20 Gluc-NH2 Lac]	–	–	–	–	–	–	–	Percent Potency Relative to Native Ligand (glucagon receptor [8]): 181%; Percent Potency Relative to Native Ligand (GLP-1 receptor [9]): 63%
H[Aib]QGTFTSDK([γGlu-γGlu-Palmitoyl])SKYLD[Aib]RRAQDFVQWLMNTGPSSGAPPPS-NH2 (N-terminus assumed; SMILES CCCCCCCCCCCCCCCC(=O)N[C@@H](CCC(=O)N[C@@H](CCC(=O)NCCCC[C@H](NC(=O)[C@H](CC(=O)O)NC(=O)[C@H](CO)NC(=O)[C@@H](NC(=O)[C@H](Cc1ccccc1)NC(=O)[C@@H](NC(=O)CNC(=O)[C@H](CCC(N)=O)NC(=O)C(C)(C)NC(=O)[C@@H](N)Cc1c[nH]cn1)[C@@H](C)O)[C@@H](C)O)C(=O)N[C@@H](CO)C(=O)N[C@@H](CCCCN)C(=O)N[C@@H](Cc1ccc(O)cc1)C(=O)N[C@@H](CC(C)C)C(=O)N[C@@H](CC(=O)O)C(=O)NC(C)(C)C(=O)N[C@@H](CCCNC(=N)N)C(=O)N[C@@H](CCCNC(=N)N)C(=O)N[C@@H](C)C(=O)N[C@@H](CCC(N)=O)C(=O)N[C@@H](CC(=O)O)C(=O)N[C@@H](Cc1ccccc1)C(=O)N[C@H](C(=O)N[C@@H](CCC(N)=O)C(=O)N[C@@H](Cc1c[nH]c2ccccc12)C(=O)N[C@@H](CC(C)C)C(=O)N[C@@H](CCSC)C(=O)N[C@@H](CC(N)=O)C(=O)N[C@H](C(=O)NCC(=O)N1CCC[C@H]1C(=O)N[C@@H](CO)C(=O)N[C@@H](CO)C(=O)NCC(=O)N[C@@H](C)C(=O)N1CCC[C@H]1C(=O)N1CCC[C@H]1C(=O)N1CCC[C@H]1C(=O)N[C@@H](CO)C(N)=O)[C@@H](C)O)C(C)C)C(=O)O)C(=O)O) [Peptide 901]	–	–	–	–	–	–	–	% Relative activity (glucagon receptor [10]): 560%; % Relative activity (GLP-1 receptor [11]): 460%; % Relative activity (GIP receptor [12]): 8.65%
HSQGTFTSDYSKYLDSRRAQDFVQWLMNTGPSSGAPPPS (C-terminal amide) [Glucagon-Cex]	–	–	–	–	–	–	–	cAMP induction EC50 (glucagon receptor [13]): 250 pM
H[Aib]QGTFTSDYSKYLD[Aib]RRAQDFVQWLMNTGPSSGAPPPSK([γGlu-γGlu-Palmitoyl])-NH2 (N-terminus assumed; SMILES CCCCCCCCCCCCCCCC(=O)N[C@@H](CCC(=O)N[C@@H](CCC(=O)NCCCC[C@H](NC(=O)[C@H](CO)NC(=O)[C@@H]1CCCN1C(=O)[C@@H]1CCCN1C(=O)[C@@H]1CCCN1C(=O)[C@H](C)NC(=O)CNC(=O)[C@H](CO)NC(=O)[C@H](CO)NC(=O)[C@@H]1CCCN1C(=O)CNC(=O)[C@@H](NC(=O)[C@H](CC(N)=O)NC(=O)[C@H](CCSC)NC(=O)[C@H](CC(C)C)NC(=O)[C@H](Cc1c[nH]c2ccccc12)NC(=O)[C@H](CCC(N)=O)NC(=O)[C@@H](NC(=O)[C@H](Cc1ccccc1)NC(=O)[C@H](CC(=O)O)NC(=O)[C@H](CCC(N)=O)NC(=O)[C@H](C)NC(=O)[C@H](CCCNC(=N)N)NC(=O)[C@H](CCCNC(=N)N)NC(=O)C(C)(C)NC(=O)[C@H](CC(=O)O)NC(=O)[C@H](CC(C)C)NC(=O)[C@H](Cc1ccc(O)cc1)NC(=O)[C@H](CCCCN)NC(=O)[C@H](CO)NC(=O)[C@H](Cc1ccc(O)cc1)NC(=O)[C@H](CC(=O)O)NC(=O)[C@H](CO)NC(=O)[C@@H](NC(=O)[C@H](Cc1ccccc1)NC(=O)[C@@H](NC(=O)CNC(=O)[C@H](CCC(N)=O)NC(=O)C(C)(C)NC(=O)[C@@H](N)Cc1c[nH]cn1)[C@@H](C)O)[C@@H](C)O)C(C)C)[C@@H](C)O)C(N)=O)C(=O)O)C(=O)O) [Peptide 900]	–	–	–	–	–	–	–	% Relative activity (glucagon receptor [10]): 560%; % Relative activity (GLP-1 receptor [11]): 383%; % Relative activity (GIP receptor [12]): 2.89%
